According to article doi:10.1101/2024.03.07.583918:

These binders were tested against CheR of Pectobacterium atrosepticum SCRI1043 (Pectobacterium atrosepticum SCRI1043) (assay: ITC).
For DWTTF [GWTTF pentapeptide with substitution of G by D at position 1], the fold decrease in affinity against GWTTF was 2.6 fold.
Work on NWTTF [NWTTF pentapeptide] yielded a Kd of 1000 nM.
NWETF [NWETF pentapeptide] showed a Kd of 480 nM.
For GWEKF [GWEKF pentapeptide], the Kd was 200 nM.
For DWTSF [DWTSF pentapeptide], the Kd was 360 nM.
In the case of GWQRF [GWQRF pentapeptide], the Kd is reported as 540 nM.
Binder GWTTF [GWTTF pentapeptide] has a Kd of 90 nM.
